From PMC5651819, “AtSPX1 affects the AtPHR1–DNA-binding equilibrium by binding monomeric AtPHR1 in solution”

Assays:
MBP-AtdPHR1 = MBP-AtdPHR1 (Arabidopsis thaliana, UniProt Q94CL7 208-362); assay: SPR; 1:1 fit at 2.5 nM protein, n = 3; ka 3.5e4 M-1 s-1, kd 0.00049 s-1; SPR (Biacore 3000, SA chip, ~500 RU DNA): 10 mM HEPES pH 7.5, 200 mM NaCl, 0.01% Surfactant P-20, 25 C, 40 ul/min, with or without Pi/InsP6; conditions: protein: recombinant; tags: N-terminal MBP (pMAL-c2x); chain copies: 2; label: 5'-biotin on strand 1; blunt
GST-AtSPX1 = target: T1, GST-AtSPX1 (Arabidopsis thaliana, UniProt Q8LBH4 1-256); assay: SPR; ~1000 nM GST-AtSPX1 after buffer, with or without 5 mM Pi; low near-baseline signal taken as non-specific; SPR (Biacore 3000, SA chip, ~500 RU DNA): 10 mM HEPES pH 7.5, 200 mM NaCl, 0.01% Surfactant P-20, 25 C, 40 ul/min, with or without Pi/InsP6; conditions: protein: recombinant; tags: N-terminal GST (pGEX-2T); label: 5'-biotin on strand 1; blunt
T1 sequence: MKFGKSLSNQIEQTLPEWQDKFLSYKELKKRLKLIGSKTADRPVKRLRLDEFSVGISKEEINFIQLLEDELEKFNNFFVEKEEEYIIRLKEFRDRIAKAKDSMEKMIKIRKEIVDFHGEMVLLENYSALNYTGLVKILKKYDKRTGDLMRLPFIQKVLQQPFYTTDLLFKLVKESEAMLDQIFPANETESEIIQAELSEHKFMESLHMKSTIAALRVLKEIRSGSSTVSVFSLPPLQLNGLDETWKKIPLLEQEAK

Chain of MBP-AtdPHR1 (Q94CL7 208-362): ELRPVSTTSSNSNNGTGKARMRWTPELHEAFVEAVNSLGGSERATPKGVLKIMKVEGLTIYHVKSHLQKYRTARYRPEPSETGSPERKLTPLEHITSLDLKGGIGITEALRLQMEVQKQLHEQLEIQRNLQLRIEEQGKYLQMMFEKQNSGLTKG

B1: 2x P1BS probe (dsDNA)
DNA 1: CAGAGAAAAAAGGATATTCTAATTAGAAACCTTAAGAATATTCTTTTTAATCCC
DNA 2: GGGATTAAAAAGAATATTCTTAAGGTTTCTAATTAGAATATCCTTTTTTCTCTG
Kd (MBP-AtdPHR1): 14 ± 2.4 nM | binding result (GST-AtSPX1): no binding
